Assay results taken from the supplement of paper PMC9732359.
± gives the uncertainty stated by the source.

Test: protein stability index of a GFP-peptide fusion (yeast GPS) (PSI 1-4); higher = more stable; sorted into four equal gates, so the index is relative within each strain
Method in brief: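 For each peptide, the protein stability index sums the read frequency in every gate after multiplying it by the gate number. Read frequencies came from plasmids that were PCR-amplified from each gate and Illumina-sequenced, with reads assigned to strains by barcodes. The gates were four equal bins of GFP/Cherry fluorescence ratio applied to mid-log yeast in leucine-free medium carrying a pooled library of tiled 17-residue yeast protein peptides fused downstream of GFP on a Cherry-expressing plasmid.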

Row | Sequence | protein stability index (doa10∆) | protein stability index (pdr5∆) | protein stability index (san1∆) | protein stability index (ubr1∆)
1 | NTFKVLSKFFFFIFVFN [COB] | 1.66 ± 0.078 | 1.41 ± 0.1 | 1.32 ± 0.2 | 1.29 ± 0.077
2 | EYKVITSLQGTYEAIEI [YMR129W/POM152] | 3.34 ± 0.2 | 2.99 ± 0.2 | 2.89 ± 0.14 | 3.17 ± 0.13
3 | STSENKISEGSAKPTFS [YOR098C/NUP1] | 3.63 ± 0.18 | 2.52 ± 0.26 | 2.8 ± 0.14 | 3.17 ± 0.097
4 | FKVRTNLNDKFGIYILT [MED1] | 1.76 ± 0.05 | 1.87 ± 0.046 | 1.98 ± 0.098 | 1.92 ± 0.042
5 | GCNNLIKNISNRVGLTL [ARP9] | 3.28 ± 0.098 | 2.63 ± 0.066 | 3.33 ± 0.069 | 3.14 ± 0.057
6 | PINLENNDGSYGLFLKY [SRB8] | 3.07 ± 0.11 | 2.34 ± 0.075 | 2.18 ± 0.14 | 1.81 ± 0.069
7 | NFRTMQQQQMQQQQQQQ [SSN2] | – | 3.15 ± 0.23 | 2.37 ± 0.12 | –
8 | IAKLVAVLNVSPVYDVD [NUT1] | 1.84 ± 0.056 | 2.05 ± 0.046 | 1.7 ± 0.084 | 1.75 ± 0.043
9 | YHGNECEINYYEILLKI [SRB8] | 1.66 ± 0.055 | 2.86 ± 0.082 | 2.24 ± 0.089 | 2.4 ± 0.082
10 | KDFVTMAIEIINDIRDD [YCG1] | 1.85 ± 0.12 | 1.7 ± 0.16 | 2.17 ± 0.2 | 2.42 ± 0.19
11 | NLSAFKIVYIAPLKALV [BRR2] | 1.55 ± 0.054 | 1.54 ± 0.051 | 1.49 ± 0.12 | 1.56 ± 0.062
12 | SFILYYRRALQSSESFD [YML103C/NUP188] | 1.79 ± 0.055 | 2.11 ± 0.067 | 1.98 ± 0.072 | 2.27 ± 0.052
13 | VKTTLVSLTQLRCVKYL [RPC82] | 1.4 ± 0.13 | 1.27 ± 0.079 | 1.16 ± 0.25 | 1.37 ± 0.11
14 | LEKLIFDMTNHYNDSQQ [SRB8] | 2.82 ± 0.053 | 2.23 ± 0.045 | 2.47 ± 0.065 | 2.51 ± 0.036
15 | QKYVGEGARMVRELFEM [RPT1] | – | – | – | 2.92 ± 0.24
16 | EAIDGNGEIKGENIDAD [SNF2] | 3.53 ± 0.14 | 3.4 ± 0.071 | 3.48 ± 0.078 | 3.25 ± 0.12
17 | EMLEENFPEASKLSEHL [YCG1] | 2.55 ± 0.28 | 2.29 ± 0.24 | 2.82 ± 0.19 | 2.49 ± 0.15
18 | EYFGGESPVDVQSQVDS [FAS1] | 3.01 ± 0.14 | 3.38 ± 0.1 | 3.19 ± 0.11 | 3.07 ± 0.092
19 | RRRDFGAPANKRPRRGL [SMD1] | 2.84 ± 0.094 | 2.93 ± 0.084 | 3.38 ± 0.07 | 3.29 ± 0.089
20 | VGRLWDQTFPINCNKET [ECM29] | 3.03 ± 0.14 | 2.87 ± 0.12 | 3.07 ± 0.11 | 3.09 ± 0.1
21 | QSNINTNAPLRTLNIQP [YIL149C/MLP2] | 2.61 ± 0.11 | 2.36 ± 0.09 | 1.99 ± 0.086 | 2.19 ± 0.076
22 | HLIFSNARIYNTEGSVV [SNF2] | 3 ± 0.12 | 3.39 ± 0.18 | 2.49 ± 0.19 | 3.18 ± 0.085
23 | YYYYHPMNAPTPAMIPY [DSN1] | 2.14 ± 0.047 | 2.39 ± 0.05 | 2.49 ± 0.066 | 2.46 ± 0.039
24 | LNLDSLLVDQKQLNSLR [SMD1] | 2.51 ± 0.051 | 2.79 ± 0.059 | 2.98 ± 0.067 | 2.51 ± 0.062
25 | RKAYFTAPSSQRRVLLS [RPL26A] | 2.44 ± 0.055 | 2.14 ± 0.056 | 2.54 ± 0.054 | 1.74 ± 0.047
26 | SLQDLIYKRGQAGVTKA [SMC2] | 1.58 ± 0.15 | 1.94 ± 0.094 | 1.85 ± 0.15 | 2.3 ± 0.079
27 | EDFMDIPKPRTAGKTSV [SNF2] | 2.67 ± 0.14 | 3.24 ± 0.085 | 3.2 ± 0.18 | 3.08 ± 0.06

Row | Sequence | protein stability index (doa10∆) | protein stability index (pdr5∆) | protein stability index (san1∆) | protein stability index (ubr1∆)
28 | RAQRVAEKRDALLKEDA [RPL19A] | 3.2 ± 0.17 | 3.04 ± 0.13 | 2.89 ± 0.14 | 3.47 ± 0.091
29 | KAELEKQKSWVPSYIHV [YIL149C/MLP2] | 2.09 ± 0.052 | 2.33 ± 0.041 | 2.15 ± 0.077 | 2.31 ± 0.035
30 | NKLSGILADEMGLGKTL [ISW2] | 3.1 ± 0.088 | 3.23 ± 0.13 | 3.15 ± 0.049 | 2.68 ± 0.096
31 | NTNNNNTNNNNNPANNT [SWI1] | 3.35 ± 0.044 | 3.354 ± 0.033 | 3.409 ± 0.027 | 3.3 ± 0.044
32 | LEQEYRLILLLNHRNKN [RMP1] | 1.28 ± 0.045 | 1.18 ± 0.05 | 1.19 ± 0.084 | 1.13 ± 0.046
33 | IMQEAGLRAVRKNRYVI [RPT3] | 2.89 ± 0.076 | 2.97 ± 0.099 | 2.91 ± 0.083 | 3.29 ± 0.13
34 | QRKTVNSDDILSLHENY [POP1] | 2.55 ± 0.053 | 2.65 ± 0.069 | 2.54 ± 0.068 | 2.92 ± 0.039
35 | QELISKAFTNWNKRDFM [ISW2] | 2.27 ± 0.14 | 3.55 ± 0.23 | 1.59 ± 0.15 | 2.89 ± 0.25
36 | ESMAYTAFQTQRTAQDR [YML031W/NDC1] | 3.27 ± 0.076 | 3.27 ± 0.099 | 3.23 ± 0.067 | 2.85 ± 0.16
37 | PYTGWVDSKTKEPVDDK [FAS2] | 3.05 ± 0.062 | 3.17 ± 0.069 | 3.05 ± 0.045 | 3.17 ± 0.053
38 | VDAITRCYQPFELFDNK [SNU114] | 3 ± 0.073 | 3.06 ± 0.068 | 2.96 ± 0.049 | 3 ± 0.068
39 | LGFTPGELRSYLKGATG [FAS1] | 3.26 ± 0.15 | 3.66 ± 0.28 | 3.33 ± 0.17 | 3.41 ± 0.17
40 | PTPAASAPAPAAAAPAP [FAS2] | 2.95 ± 0.1 | 3.05 ± 0.073 | 2.72 ± 0.074 | 3.1 ± 0.079
41 | LQGDLTFTKKCLENARS [SIR4] | 3.23 ± 0.064 | 3.11 ± 0.059 | 3.05 ± 0.047 | 2.96 ± 0.041
42 | KVYYFQGGNNELGTAVG [RPL30] | 2.67 ± 0.093 | 2.91 ± 0.086 | 2.54 ± 0.054 | 2.89 ± 0.072
43 | ILGQTMSIGTGSFKVVK [RPO31] | – | 2.47 ± 0.13 | 1.97 ± 0.12 | 2.99 ± 0.15
44 | QHDKMVDKIFEKVNNNA [SWI1] | 3.19 ± 0.15 | 2.73 ± 0.081 | 2.87 ± 0.067 | 2.99 ± 0.041
45 | GTPLQNNLHELWALLNF [ISW2] | 2.76 ± 0.045 | 2.55 ± 0.051 | 2.35 ± 0.05 | 2.76 ± 0.041
46 | HTLMSFAGEAGDTVQFA [PRE1] | 3.01 ± 0.11 | 3.3 ± 0.15 | 2.95 ± 0.095 | 3.22 ± 0.12
47 | AIPNSIIKRSNGQSLSP [YMR153W/NUP53] | 2.14 ± 0.12 | 2.68 ± 0.049 | 2.71 ± 0.061 | 2.69 ± 0.037
48 | DKRIVISIDSWPTTHKY [DIS3] | 1.92 ± 0.065 | 1.52 ± 0.11 | 1.99 ± 0.16 | 2.06 ± 0.087
49 | SIAEEIPIAIVLKACGI [RET1] | 1.61 ± 0.056 | 1.49 ± 0.049 | 1.31 ± 0.089 | 1.66 ± 0.049
50 | VSGDAAALFRLHKFLTK [SWI3] | 2.92 ± 0.14 | 2.6 ± 0.15 | 2.72 ± 0.098 | 3.08 ± 0.11
51 | STKKKILGIHTSKMNLS [RPT2] | 3.47 ± 0.13 | 3.21 ± 0.096 | 3.42 ± 0.071 | 3.05 ± 0.073
52 | NSLLSNFNDIPPSVTLQ [YDL088C/ASM4] | 2.63 ± 0.081 | 1.98 ± 0.072 | 2.04 ± 0.11 | 2.72 ± 0.11
53 | AHMWPRVHDQPLIWQLL [POP3] | 1.42 ± 0.12 | 1.64 ± 0.12 | 1.44 ± 0.23 | 1.51 ± 0.11
